Columns and labels:
[1] = biological target: T1, recombinant human CD155PVR (human, UniProt P15151 21-343, limits assumed); assay: biolayer interferometry (Octet), hPVR; concentration not given
T1 sequence (looked up): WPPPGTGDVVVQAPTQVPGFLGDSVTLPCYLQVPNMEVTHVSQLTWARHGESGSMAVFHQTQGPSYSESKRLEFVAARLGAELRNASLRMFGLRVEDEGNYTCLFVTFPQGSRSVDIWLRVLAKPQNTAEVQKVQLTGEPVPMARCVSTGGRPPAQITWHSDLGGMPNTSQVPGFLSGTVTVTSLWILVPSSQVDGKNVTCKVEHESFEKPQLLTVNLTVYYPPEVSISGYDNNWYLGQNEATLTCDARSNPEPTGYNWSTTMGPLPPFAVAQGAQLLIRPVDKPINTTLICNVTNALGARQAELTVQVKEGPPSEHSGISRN

[2] = biological target: recombinant human LTbR (human, UniProt P36941 31-227, limits assumed); assay: biolayer interferometry (Octet), human LTbR
[3] = biological target: T2, human LTBR-His (human, UniProt P36941 31-227, limits assumed); assay: Dual ELISA: hCD155-Fc capture, hLTBR-His detection, 6x His HRP
T2 construct: also called hLTBR-His

[4] = biological target: T3, hCD155-Fc (human, UniProt P15151 21-343, limits assumed); assay: as above
T3 construct: not shown: Fc, not identified
T3 sequence (looked up): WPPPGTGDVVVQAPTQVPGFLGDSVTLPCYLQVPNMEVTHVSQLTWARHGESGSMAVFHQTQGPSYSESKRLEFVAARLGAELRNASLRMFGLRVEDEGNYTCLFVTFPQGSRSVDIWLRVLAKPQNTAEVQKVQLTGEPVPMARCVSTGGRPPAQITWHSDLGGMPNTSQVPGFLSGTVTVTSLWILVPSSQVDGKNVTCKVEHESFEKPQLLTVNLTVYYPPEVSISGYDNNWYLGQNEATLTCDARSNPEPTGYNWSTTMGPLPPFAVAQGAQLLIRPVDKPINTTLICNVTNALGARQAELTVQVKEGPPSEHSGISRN

[5] = biological target: T4, PVR (human, UniProt P15151); assay: microarray of about 6,000 human membrane proteins
T4 construct: on the microarray of human membrane proteins; also called Poliovirus Receptor
T4 sequence (looked up): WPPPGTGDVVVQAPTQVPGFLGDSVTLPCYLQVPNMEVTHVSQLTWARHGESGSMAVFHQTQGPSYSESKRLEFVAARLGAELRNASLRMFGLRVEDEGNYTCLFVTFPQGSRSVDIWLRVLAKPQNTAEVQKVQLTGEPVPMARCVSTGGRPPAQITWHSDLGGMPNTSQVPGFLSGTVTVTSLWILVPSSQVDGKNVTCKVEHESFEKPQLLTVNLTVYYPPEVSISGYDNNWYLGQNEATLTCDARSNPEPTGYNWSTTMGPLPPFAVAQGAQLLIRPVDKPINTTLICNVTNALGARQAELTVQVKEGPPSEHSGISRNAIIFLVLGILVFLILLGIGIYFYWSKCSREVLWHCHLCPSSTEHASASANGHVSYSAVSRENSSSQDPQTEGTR

[6] = biological target: Galectin-1 (human, UniProt P09382 2-135, limits assumed); assay: microarray of about 6,000 human membrane proteins
[7] = biological target: T5, TNFRSF4; assay: microarray of about 6,000 human membrane proteins
T5 construct: also called TNF Receptor Superfamily Member 4
T5 chain: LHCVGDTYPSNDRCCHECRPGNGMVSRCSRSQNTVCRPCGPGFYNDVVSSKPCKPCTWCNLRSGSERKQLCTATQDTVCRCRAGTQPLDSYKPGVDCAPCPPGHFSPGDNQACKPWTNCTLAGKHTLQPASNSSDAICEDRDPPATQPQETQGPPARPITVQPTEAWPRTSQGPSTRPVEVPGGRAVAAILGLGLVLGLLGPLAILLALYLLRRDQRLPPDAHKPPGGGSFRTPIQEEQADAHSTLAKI

[8] = biological target: T6, NECTIN4 (human, UniProt Q96NY8); assay: microarray of about 6,000 human membrane proteins
T6 construct: on the microarray of human membrane proteins; also called Nectin Cell Adhesion Molecule 4
T6 sequence (looked up): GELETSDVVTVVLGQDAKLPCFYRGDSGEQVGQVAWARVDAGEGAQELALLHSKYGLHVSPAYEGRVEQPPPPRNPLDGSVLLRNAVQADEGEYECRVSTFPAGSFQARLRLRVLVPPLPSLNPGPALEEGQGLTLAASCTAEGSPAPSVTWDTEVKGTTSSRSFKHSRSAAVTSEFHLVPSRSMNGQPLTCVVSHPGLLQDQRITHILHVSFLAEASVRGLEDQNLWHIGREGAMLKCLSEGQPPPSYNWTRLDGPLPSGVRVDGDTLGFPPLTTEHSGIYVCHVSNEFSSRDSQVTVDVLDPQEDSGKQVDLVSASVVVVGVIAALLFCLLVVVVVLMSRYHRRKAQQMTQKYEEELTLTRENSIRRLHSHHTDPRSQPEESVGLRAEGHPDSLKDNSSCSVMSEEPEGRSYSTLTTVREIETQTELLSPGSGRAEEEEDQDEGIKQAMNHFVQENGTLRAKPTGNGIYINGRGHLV

[9] = biological target: T3, hCD155-Fc; assay: ELISA as printed: CD155-Fc capture, goat anti-hOX40L detection, anti-goat HRP (legend says CD155PVR-His capture, IgG detection)
[10] = biological target: T7, CD47-His; assay: ELISA: CD47-His capture, IgG detection
T7 construct: ELISA capture protein used with both murine and human chimeras

[11] = biological target: T8, mouse CD47 on CHO-K1 cells (mouse, UniProt Q61735 19-303); assay: flow cytometry on CHO-K1 cells expressing murine CD47
T8 construct: whole, on cells; also called mCD47 engineered cell line; mCD47 over-expressing cell line
T8 sequence (looked up): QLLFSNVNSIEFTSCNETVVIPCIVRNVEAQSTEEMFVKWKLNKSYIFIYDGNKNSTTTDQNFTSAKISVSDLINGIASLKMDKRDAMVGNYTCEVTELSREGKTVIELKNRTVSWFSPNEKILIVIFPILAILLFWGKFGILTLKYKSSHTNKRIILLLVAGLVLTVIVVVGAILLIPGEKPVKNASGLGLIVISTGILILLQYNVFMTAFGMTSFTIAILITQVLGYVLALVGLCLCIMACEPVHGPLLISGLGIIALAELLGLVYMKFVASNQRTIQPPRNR

[12] = biological target: T9, CD155PVR-His; assay: ELISA: 'CD115/PVR Capture' as printed (legend: CD155PVR-His), Fc-HRP detection
T9 construct: ELISA capture protein used with both murine and human chimeras; also called CD155-His

[13] = biological target: T10, mouse PVR on CHO-K1 cells (mouse); assay: flow cytometry on CHOK1/PVR cells
T10 construct: whole, on cells; also called CHOK1/PVR; mPVR engineered cell line

[14] = biological target: T11, OX40-Fc; assay: Dual ELISA: OX40-Fc capture, CD155-His detection, 6X His HRP (signal needs both OX40-Fc and CD155-His bound)
T11 construct: Capture protein of the dual ELISA

[15] = biological target: T12, mouse OX40 on CHO-K1 cells (mouse, UniProt P47741 20-272); assay: flow cytometry on CHOK1-mOX40 cells
T12 construct: whole, on cells; also called CHOK1-mOX40
T12 sequence (looked up): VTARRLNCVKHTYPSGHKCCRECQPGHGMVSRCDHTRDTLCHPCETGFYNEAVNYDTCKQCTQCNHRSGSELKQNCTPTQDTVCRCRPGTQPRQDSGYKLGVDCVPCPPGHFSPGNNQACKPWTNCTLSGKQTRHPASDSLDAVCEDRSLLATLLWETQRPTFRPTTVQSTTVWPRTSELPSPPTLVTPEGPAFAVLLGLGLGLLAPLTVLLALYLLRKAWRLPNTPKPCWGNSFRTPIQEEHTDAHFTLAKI

Sequence of Galectin-1 (P09382 2-135 limits assumed): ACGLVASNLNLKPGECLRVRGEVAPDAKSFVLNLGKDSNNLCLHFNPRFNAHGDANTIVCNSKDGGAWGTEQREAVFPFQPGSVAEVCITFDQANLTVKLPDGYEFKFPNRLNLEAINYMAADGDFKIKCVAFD
Sequence of recombinant human LTbR (P36941 31-227 limits assumed): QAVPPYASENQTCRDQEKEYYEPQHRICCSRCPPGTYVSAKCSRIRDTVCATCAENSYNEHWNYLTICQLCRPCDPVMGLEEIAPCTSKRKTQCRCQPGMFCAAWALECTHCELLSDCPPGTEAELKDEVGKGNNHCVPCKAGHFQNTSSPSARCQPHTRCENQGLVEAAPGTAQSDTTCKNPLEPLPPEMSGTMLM
T2 sequence (P36941 31-227 limits assumed): as above

B1: human TIGIT-Fc-LIGHT chimeric protein (Fc fusion)
chain: MMTGTIETTGNISAEKGGSIILQCHLSSTTAQVTQVNWEQQDQLLAICNADLGWHISPSFKDRVAPGPGLGLTLQSLTVNDTGEYFCIYHTYPDGTYTGRIFLEVLESSVAEHGARFQIPSKYGPPCPPCPAPEFLGGPSVFLFPPKPKDQLMISRTPEVTCVVVDVSQEDPEVQFNWYVDGVEVHNAKTKPREEQFNSTYRVVSVLTVLHQDWLSGKEYKCKVSSKGLPSSIEKTISNATGQPREPQVYTLPPSQEEMTKNQVSLTCLVKGFYPSDIAVEWESNGQPENNYKTTPPVLDSDGSFFLYSRLTVDKSRWQEGNVFSCSVLHEALHNHYTQKSLSLSLGKIEGRMDLQLHWRLGEMVTRLPDGPAGSWEQLIQERRSHEVNPAAHLTGANSSLTGSGGPLLWETQLGLAFLRGLSYHDGALVVTKAGYYYIYSKVQLGGVGCPLGLASTITHGLYKRTPRYPEELELLVSQQSPCGRATSSSRVWWDSSFLGGVVHLEAGEKVVVRVLDERLVRLRDGTRSYFGAFMV
notes: also called hTIGIT-Fc-LIGHT; hTIGIT-1-Fc-LIGHT
B1: binds [1]; binds [2]; binds [3]. B1: binds [4].

B2: human TIGIT-Fc-OX40L chimeric protein (Fc fusion)
chain: MMTGTIETTGNISAEKGGSIILQCHLSSTTAQVTQVNWEQQDQLLAICNADLGWHISPSFKDRVAPGPGLGLTLQSLTVNDTGEYFCIYHTYPDGTYTGRIFLEVLESSVAEHGARFQIPSKYGPPCPPCPAPEFLGGPSVFLFPPKPKDQLMISRTPEVTCVVVDVSQEDPEVQFNWYVDGVEVHNAKTKPREEQFNSTYRVVSVLTVLHQDWLSGKEYKCKVSSKGLPSSIEKTISNATGQPREPQVYTLPPSQEEMTKNQVSLTCLVKGFYPSDIAVEWESNGQPENNYKTTPPVLDSDGSFFLYSRLTVDKSRWQEGNVFSCSVLHEALHNHYTQKSLSLSLGKIEGRMDQVSHRYPRIQSIKVQFTEYKKEKGFILTSQKEDEIMKVQNNSVIINCDGFYLISLKGYFSQEVNISLHYQKDEEPLFQLKKVRSVNSLMVASLTYKDKVYLNVTTDNTSLDDFHVNGGELILIHQNPGEFCVL
notes: also called hTIGIT-Fc-OX40L
B2: binds [5]; binds [6]; binds [7]. B2: binds [8]; binds [9]; binds [1].

B3: murine CD172a(SIRPα)-Fc-LIGHT chimeric protein (Fc fusion)
chain 1: KELKVTQPEKSVSVAAGDSTVLNCTLTSLLPVGPIRWYRGVGPSRLLIYSFAGEYVPRIRNVSDTTKRNNMDFSIRISNVTPADAGIYYCVKFQKGSSEPDTEIQSGGGTEVYVLAKPSPPEVSGPADRGIPDQKVNFTCKSHGFSPRNITLKWFKDGQELHPLETTVNPSGKNVSYNISSTVRVVLNSMDVNSKVICEVAHITLDRSPLRGIANLSNFIRVSPTVKVTQQSPTSMNQVNLTCRAERFYPEDLQLIWLENGNVSRNDTPKNLTKNTDGTYNYTSLFLVNSSAHREDVVFTCQVKHDQQPAITRNHTVLGFAHSSDQGSMQTFPDNNATHNWN
chain 2: LHQRLGDIVAHLPDGGKGSWEKLIQDQRSHQANPAAHLTGANASLIGIGGPLLWETRLGLAFLRGLTYHDGALVTMEPGYYYVYSKVQLSGVGCPQGLANGLPITHGLYKRTSRYPKELELLVSRRSPCGRANSSRVWWDSSFLGGVVHLEAGEEVVVRVPGNRLVRPRDGTRSYFGAFMV
In the case of B3, the “EC50 (read off the curve)” value [10] is reported as ~4 nM and the EC50 [11] is reported as 18 nM.

B4: murine TIGIT-Fc-OX40L chimeric protein (Fc fusion)
chain 1: TIDTKRNISAEEGGSVILQCHFSSDTAEVTQVDWKQQDQLLAIYSVDLGWHVASVFSDRVVPGPSLGLTFQSLTMNDTGEYFCTYHTYPGGIYKGRIFLKVQESSDDRNGLAQFQTAPLG
chain 2: SSSPAKDPPIQRLRGAVTRCEDGQLFISSYKNEYQTMEVQNNSVVIKCDGLYIIYLKGSFFQEVKIDLHFREDHNPISIPMLNDGRRIVFTVVASLAFKDKVYLTVNAPDTLCEHLQINDGELIVVQLTPGYCAPEGSYHSTVNQVPL
For B4, the “EC50 (read off the curve)” value [12] was ~4 nM, the EC50 [13] was 4.63 nM and the “EC50 (read off the curve)” value [14] was ~8 nM. The EC50 [15] was 1.7 nM.

— patent US20240190939A1 (SHATTUCK LABS, published 2024)
